Eight molecules from patent US20240409645A1 (published 2024) can be followed below.

T1: human IL-2 receptor IL-2Rα/IL-2Rβ/γc on HEK-Blue IL-2 cells (UniProt P01589 22-272; P14784 27-551; P31785 23-369)
T1 chain 1: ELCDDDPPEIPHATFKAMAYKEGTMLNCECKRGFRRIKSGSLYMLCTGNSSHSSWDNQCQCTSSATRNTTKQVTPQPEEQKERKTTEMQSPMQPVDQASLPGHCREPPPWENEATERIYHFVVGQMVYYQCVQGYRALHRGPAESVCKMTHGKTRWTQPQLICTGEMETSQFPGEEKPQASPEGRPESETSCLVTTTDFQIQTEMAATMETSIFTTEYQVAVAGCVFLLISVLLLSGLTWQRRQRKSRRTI
T1 chain 2: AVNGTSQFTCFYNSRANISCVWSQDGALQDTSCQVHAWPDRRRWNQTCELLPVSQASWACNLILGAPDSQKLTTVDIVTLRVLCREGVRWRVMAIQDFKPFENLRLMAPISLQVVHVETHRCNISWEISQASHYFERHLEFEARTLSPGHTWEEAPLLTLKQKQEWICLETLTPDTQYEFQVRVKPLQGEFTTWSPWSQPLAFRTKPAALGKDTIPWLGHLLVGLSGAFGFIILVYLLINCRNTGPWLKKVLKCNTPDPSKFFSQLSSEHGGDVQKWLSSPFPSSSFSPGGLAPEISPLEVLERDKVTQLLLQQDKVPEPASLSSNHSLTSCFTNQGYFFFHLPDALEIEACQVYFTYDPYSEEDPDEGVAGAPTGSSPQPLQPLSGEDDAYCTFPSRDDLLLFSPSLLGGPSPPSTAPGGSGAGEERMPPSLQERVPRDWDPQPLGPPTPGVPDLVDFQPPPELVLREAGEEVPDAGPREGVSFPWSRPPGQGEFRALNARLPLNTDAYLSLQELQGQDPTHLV
T1 chain 3: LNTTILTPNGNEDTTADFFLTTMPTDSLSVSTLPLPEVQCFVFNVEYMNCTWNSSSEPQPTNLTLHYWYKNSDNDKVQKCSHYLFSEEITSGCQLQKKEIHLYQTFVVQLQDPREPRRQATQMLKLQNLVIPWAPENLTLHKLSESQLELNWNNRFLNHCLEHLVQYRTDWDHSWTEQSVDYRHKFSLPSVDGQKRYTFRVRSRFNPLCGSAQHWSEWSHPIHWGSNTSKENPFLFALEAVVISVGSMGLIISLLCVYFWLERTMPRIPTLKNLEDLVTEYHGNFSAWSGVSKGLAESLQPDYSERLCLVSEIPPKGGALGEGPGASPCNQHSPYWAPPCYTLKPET

B1: BsVHH-4 (35x16) (antibody)
chain: QVQLQESGGGLVQGGGSLRLSCAASGGIFSSYAMGWFRQAPGKEREFVAAISRSGRSTNYADSVKGRFTISRDNAKSTVYLQMNSLKPEETAVYYCAAGRYYNSAYDPSPGDFGSWGHGTQVTVSSGGGGSGGGGSGGGGSGSEVQLVESGGGLVQAGGSLRLSCAASGRAIENYPVGWFRQAPGKEREFVAAITWISGSTLYADSVKGRFTISRDNAKNTVYLQMSSLKPEDTALYYCAAALKTITRGQNDYSYWGQGTQVTVSSGGGGSGGGGSGGGGSTVSSDKTHTCPPCPAPEAAGGPSVFLFPPKPKDTLMISRTPEVTCVVVDVSHEDPEVKFNWYVDGVEVHNAKTKPREEQYNSTYRVVSVLTVLHQDWLNGKEYKCKVSNKALGAPIEKTISKAKGQPREPQVYTLPPSRDELTKNQVSLTCLVKGFYPSDIAVEWESNGQPENNYKTTPPVLDSDGSFLLYSKLTVDKSRWQQGNVFSCSVMHEALHNHYTQKSLSLSPGK
B2: BsVHH-11 (27x19) (antibody)
chain: QVQLVESGGGLVQAGGSLTLSCAAPGRTFGTDVVGWFRQAPGKEREFVASISRSGDGIYYDDSVKGRFTISRNNAWNTVNLQMNSLKVEDTAVYYCAAGDGWSTYDYWGQGTQVTVSSGGGGSGGGGSGGGGSGSEVQLVESGGGLVQTGGSLRLSCAASGGTFSRDAMAWFRQVPGKEREFVALISWSGATTNYADSVKGRFAISRDNGKNTVYLQMNRLKPADTAIYYCAADRRPMGSRSYFEPTEYDDWGQGTQVTVSSGGGGSGGGGSGGGGSTVSSDKTHTCPPCPAPEAAGGPSVFLFPPKPKDTLMISRTPEVTCVVVDVSHEDPEVKFNWYVDGVEVHNAKTKPREEQYNSTYRVVSVLTVLHQDWLNGKEYKCKVSNKALGAPIEKTISKAKGQPREPQVYTLPPSRDELTKNQVSLTCLVKGFYPSDIAVEWESNGQPENNYKTTPPVLDSDGSFLLYSKLTVDKSRWQQGNVFSCSVMHEALHNHYTQKSLSLSPGK
B3: BsVHH-10 (36x18) (antibody)
chain: QVQLVESGGGLVQAGGSLRLSCAASGRTLSRYAMGWFRQAPGSEREFVAASSWGGDTFYADSVEGRFTFSRDNAKNAVYLQMNSLQPEDTAAYYCAAAPTSFPTTAYSSSNSYAYWGQGTQVTVSSGGGGSGGGGSGGGGSGSQVQLVESGGGLVQPGGSLRLSCAISGGTLDSYGIGWVRQAPGKQREGVSCMSRSDDRTYYADSVKGRFTISKDSAKNTVYLQMTSLKPEDTAVYYCAAVDAYGCSLVQPTTYDFWGLGTQVTVSSGGGGSGGGGSGGGGSTVSSDKTHTCPPCPAPEAAGGPSVFLFPPKPKDTLMISRTPEVTCVVVDVSHEDPEVKFNWYVDGVEVHNAKTKPREEQYNSTYRVVSVLTVLHQDWLNGKEYKCKVSNKALGAPIEKTISKAKGQPREPQVYTLPPSRDELTKNQVSLTCLVKGFYPSDIAVEWESNGQPENNYKTTPPVLDSDGSFLLYSKLTVDKSRWQQGNVFSCSVMHEALHNHYTQKSLSLSPGK
B4: BsVHH-13 (32x19) (antibody)
chain: QVQLVESGGGLVQAGGSLRLSCAASGRTFGSTAVGWFRQVPGKEREFVSAINRSGSATTYADSVKGRFTISRDNAKNTVYLQMNSLTPEDTGVYYCAADSLPYGRPYYFQRSAGEYDYWGQGTQVTVSSGGGGSGGGGSGGGGSGSEVQLVESGGGLVQTGGSLRLSCAASGGTFSRDAMAWFRQVPGKEREFVALISWSGATTNYADSVKGRFAISRDNGKNTVYLQMNRLKPADTAIYYCAADRRPMGSRSYFEPTEYDDWGQGTQVTVSSGGGGSGGGGSGGGGSTVSSDKTHTCPPCPAPEAAGGPSVFLFPPKPKDTLMISRTPEVTCVVVDVSHEDPEVKFNWYVDGVEVHNAKTKPREEQYNSTYRVVSVLTVLHQDWLNGKEYKCKVSNKALGAPIEKTISKAKGQPREPQVYTLPPSRDELTKNQVSLTCLVKGFYPSDIAVEWESNGQPENNYKTTPPVLDSDGSFLLYSKLTVDKSRWQQGNVFSCSVMHEALHNHYTQKSLSLSPGK
B5: BsVHH-5 (36x16) (antibody)
chain: QVQLVESGGGLVQAGGSLRLSCAASGRTLSRYAMGWFRQAPGSEREFVAASSWGGDTFYADSVEGRFTFSRDNAKNAVYLQMNSLQPEDTAAYYCAAAPTSFPTTAYSSSNSYAYWGQGTQVTVSSGGGGSGGGGSGGGGSGSEVQLVESGGGLVQAGGSLRLSCAASGRAIENYPVGWFRQAPGKEREFVAAITWISGSTLYADSVKGRFTISRDNAKNTVYLQMSSLKPEDTALYYCAAALKTITRGQNDYSYWGQGTQVTVSSGGGGSGGGGSGGGGSTVSSDKTHTCPPCPAPEAAGGPSVFLFPPKPKDTLMISRTPEVTCVVVDVSHEDPEVKFNWYVDGVEVHNAKTKPREEQYNSTYRVVSVLTVLHQDWLNGKEYKCKVSNKALGAPIEKTISKAKGQPREPQVYTLPPSRDELTKNQVSLTCLVKGFYPSDIAVEWESNGQPENNYKTTPPVLDSDGSFLLYSKLTVDKSRWQQGNVFSCSVMHEALHNHYTQKSLSLSPGK
B6: BsVHH-6 (27x18) (antibody)
chain: QVQLVESGGGLVQAGGSLTLSCAAPGRTFGTDVVGWFRQAPGKEREFVASISRSGDGIYYDDSVKGRFTISRNNAWNTVNLQMNSLKVEDTAVYYCAAGDGWSTYDYWGQGTQVTVSSGGGGSGGGGSGGGGSGSQVQLVESGGGLVQPGGSLRLSCAISGGTLDSYGIGWVRQAPGKQREGVSCMSRSDDRTYYADSVKGRFTISKDSAKNTVYLQMTSLKPEDTAVYYCAAVDAYGCSLVQPTTYDFWGLGTQVTVSSGGGGSGGGGSGGGGSTVSSDKTHTCPPCPAPEAAGGPSVFLFPPKPKDTLMISRTPEVTCVVVDVSHEDPEVKFNWYVDGVEVHNAKTKPREEQYNSTYRVVSVLTVLHQDWLNGKEYKCKVSNKALGAPIEKTISKAKGQPREPQVYTLPPSRDELTKNQVSLTCLVKGFYPSDIAVEWESNGQPENNYKTTPPVLDSDGSFLLYSKLTVDKSRWQQGNVFSCSVMHEALHNHYTQKSLSLSPGK
B7: BsVHH-16 (27x22) (antibody)
chain: QVQLVESGGGLVQAGGSLTLSCAAPGRTFGTDVVGWFRQAPGKEREFVASISRSGDGIYYDDSVKGRFTISRNNAWNTVNLQMNSLKVEDTAVYYCAAGDGWSTYDYWGQGTQVTVSSGGGGSGGGGSGGGGSGSEVQLVESGGGLVQAGGSLRLSCAASGSIFSINAMAWFRQVPGMERELVAAISRDGGASVYRDSVKGRFTISRDNSKNTVYLQMNTLKPEDTAIYVCAATRAIGWTARWITTDFDFWGQGTQVTVSSGGGGSGGGGSGGGGSTVSSDKTHTCPPCPAPEAAGGPSVFLFPPKPKDTLMISRTPEVTCVVVDVSHEDPEVKFNWYVDGVEVHNAKTKPREEQYNSTYRVVSVLTVLHQDWLNGKEYKCKVSNKALGAPIEKTISKAKGQPREPQVYTLPPSRDELTKNQVSLTCLVKGFYPSDIAVEWESNGQPENNYKTTPPVLDSDGSFLLYSKLTVDKSRWQQGNVFSCSVMHEALHNHYTQKSLSLSPGK
B8: BsVHH-3 (32x16) (antibody)
chain: QVQLVESGGGLVQAGGSLRLSCAASGRTFGSTAVGWFRQVPGKEREFVSAINRSGSATTYADSVKGRFTISRDNAKNTVYLQMNSLTPEDTGVYYCAADSLPYGRPYYFQRSAGEYDYWGQGTQVTVSSGGGGSGGGGSGGGGSGSEVQLVESGGGLVQAGGSLRLSCAASGRAIENYPVGWFRQAPGKEREFVAAITWISGSTLYADSVKGRFTISRDNAKNTVYLQMSSLKPEDTALYYCAAALKTITRGQNDYSYWGQGTQVTVSSGGGGSGGGGSGGGGSTVSSDKTHTCPPCPAPEAAGGPSVFLFPPKPKDTLMISRTPEVTCVVVDVSHEDPEVKFNWYVDGVEVHNAKTKPREEQYNSTYRVVSVLTVLHQDWLNGKEYKCKVSNKALGAPIEKTISKAKGQPREPQVYTLPPSRDELTKNQVSLTCLVKGFYPSDIAVEWESNGQPENNYKTTPPVLDSDGSFLLYSKLTVDKSRWQQGNVFSCSVMHEALHNHYTQKSLSLSPGK

In the assay the target is T1, human IL-2 receptor IL-2Rα/IL-2Rβ/γc on …. The assay is described as follows: FACS cell binding; avid.
For the molecule B1, the EC50 amounted to 3.5 nM.
Regarding B2, a half-maximal effect (EC50) was put at 38.1 nM.
The figure for B3 is 4.2 nM.
In the case of B4 it was 41.8 nM; in that of B5, 121 nM.
In the case of B6 it was 172 nM; in that of B7, 659 nM; in that of B8, 3.7 nM.

In general, EC50 refers to the concentration that produces a half-maximal response.
